pKd: −log10 of the molar value.
Assays:
[1] = target: CD74 (invariant chain, Ii), human, on tumor cell lines (human) (UniProt P04233); test: cell binding to antigen-positive cells (cell line not given)
[2] = target: Human neonatal receptor (FcRn) (human) (UniProt P55899); test: SPR (BIACore), low density FcRn biosensor chip, three runs of five dilutions
[3] = target: TROP-2 (EGP-1), human, on tumor cell lines (human) (UniProt P09758); test: cell binding on TROP-2-positive PC-3 human prostate carcinoma cells, three separate occasions
[4] = target: CD74 (invariant chain, Ii), human, on tumor cell lines (human) (UniProt P04233); test: flow cytometry, surface and cytoplasmic (permeabilized), Capan-1 cells
[5] = target: CD74 (invariant chain, Ii), human, on tumor cell lines (human) (UniProt P04233); test: flow cytometry, surface only, Hs746T cells
[6] = target: CD74 (invariant chain, Ii), human, on tumor cell lines (human) (UniProt P04233); test: flow cytometry, surface and cytoplasmic (permeabilized), Hs746T cells
[7] = target: CD74 (invariant chain, Ii), human, on tumor cell lines (human) (UniProt P04233); test: flow cytometry, surface only, NCI-N87 cells
[8] = target: CD74 (invariant chain, Ii), human, on tumor cell lines (human) (UniProt P04233); test: flow cytometry, surface only, Hep-G2 cells
[9] = target: CD74 (invariant chain, Ii), human, on tumor cell lines (human) (UniProt P04233); test: flow cytometry, surface and cytoplasmic (permeabilized), HuH-7 cells
[10] = target: CD74 (invariant chain, Ii), human, on tumor cell lines (human) (UniProt P04233); test: flow cytometry, surface only, HuH-7 cells
[11] = target: CD74 (invariant chain, Ii), human, on tumor cell lines (human) (UniProt P04233); test: flow cytometry, surface and cytoplasmic (permeabilized), Raji cells
[12] = target: CD74 (invariant chain, Ii), human, on tumor cell lines (human) (UniProt P04233); test: flow cytometry, surface only, Raji cells
[13] = target: CD74 (invariant chain, Ii), human, on tumor cell lines (human) (UniProt P04233); test: flow cytometry, surface and cytoplasmic (permeabilized), A-375 cells
[14] = target: CD74 (invariant chain, Ii), human, on tumor cell lines (human) (UniProt P04233); test: flow cytometry, surface and cytoplasmic (permeabilized), Hep-G2 cells
[15] = target: CD74 (invariant chain, Ii), human, on tumor cell lines (human) (UniProt P04233); test: flow cytometry, surface only, Capan-1 cells
[16] = target: CD74 (invariant chain, Ii), human, on tumor cell lines (human) (UniProt P04233); test: flow cytometry, surface only, A-375 cells
[17] = target: CD74 (invariant chain, Ii), human, on tumor cell lines (human) (UniProt P04233); test: flow cytometry, surface and cytoplasmic (permeabilized), NCI-N87 cells

CD74 (invariant chain, Ii), human, on tumor cell lines (human), sequence (P04233 whole entry, change not shown): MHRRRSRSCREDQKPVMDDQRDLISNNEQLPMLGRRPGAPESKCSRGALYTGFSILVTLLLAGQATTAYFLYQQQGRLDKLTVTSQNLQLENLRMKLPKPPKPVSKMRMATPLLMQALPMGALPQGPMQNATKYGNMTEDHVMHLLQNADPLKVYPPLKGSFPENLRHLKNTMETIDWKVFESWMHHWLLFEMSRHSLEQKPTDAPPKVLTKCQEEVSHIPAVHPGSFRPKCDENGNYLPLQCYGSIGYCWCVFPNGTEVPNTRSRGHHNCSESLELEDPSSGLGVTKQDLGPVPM
TROP-2 (EGP-1), human, on tumor cell lines (human), sequence (P09758 27-323): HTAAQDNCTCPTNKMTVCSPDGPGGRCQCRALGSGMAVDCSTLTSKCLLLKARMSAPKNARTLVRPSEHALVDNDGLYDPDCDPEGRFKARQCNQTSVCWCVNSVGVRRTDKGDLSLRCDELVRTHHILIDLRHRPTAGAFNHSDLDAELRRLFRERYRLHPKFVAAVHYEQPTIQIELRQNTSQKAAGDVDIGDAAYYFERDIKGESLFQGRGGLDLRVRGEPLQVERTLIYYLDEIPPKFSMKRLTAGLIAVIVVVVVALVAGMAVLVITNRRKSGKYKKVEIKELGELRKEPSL
Human neonatal receptor (FcRn) (human), sequence (P55899 24-297 limits assumed): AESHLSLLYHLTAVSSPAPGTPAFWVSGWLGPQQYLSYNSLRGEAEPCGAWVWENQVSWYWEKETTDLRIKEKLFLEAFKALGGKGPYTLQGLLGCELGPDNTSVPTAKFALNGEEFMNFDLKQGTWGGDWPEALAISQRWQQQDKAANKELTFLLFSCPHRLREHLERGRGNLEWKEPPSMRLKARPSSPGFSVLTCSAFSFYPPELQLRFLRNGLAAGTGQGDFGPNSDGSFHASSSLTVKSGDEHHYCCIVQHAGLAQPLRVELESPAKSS

milatuzumab-CL2E-SN-38 conjugate (antibody)
pKd [1]: 9.10

milatuzumab-CL2A-SN-38 conjugate (antibody)
pKd [1]: 9.23

IMMU-132 (hRS7-CL2A-SN-38 antibody-drug conjugate)
pKd [2]: 7.03 | pKd [3]: 9.18

Milatuzumab (hLL1, humanized anti-CD74 IgG1 monoclonal antibody, unconjugated)
MFI [4]: 248 MFI | MFI Ratio hLL1:bkgd [4]: 49.6 | MFI [5]: 17 MFI | MFI Ratio hLL1:bkgd [5]: 2.1 | MFI [6]: 144 MFI | MFI Ratio hLL1:bkgd [6]: 28.8 | MFI [7]: 5 MFI | MFI Ratio hLL1:bkgd [7]: 1.3 | MFI [8]: 9 MFI | MFI Ratio hLL1:bkgd [8]: 1.5 | pKd [1]: 9.11 | MFI [9]: 114 MFI | MFI Ratio hLL1:bkgd [9]: 28.5 | MFI [10]: 8 MFI | MFI Ratio hLL1:bkgd [10]: 1.6 | MFI [11]: 143 MFI | MFI Ratio hLL1:bkgd [11]: 28.6 | MFI [12]: 59 MFI | MFI Ratio hLL1:bkgd [12]: 19.6 | MFI [13]: 185 MFI | MFI Ratio hLL1:bkgd [13]: 30.8 | MFI [14]: 156 MFI | MFI Ratio hLL1:bkgd [14]: 31.2 | MFI [15]: 22 MFI | MFI Ratio hLL1:bkgd [15]: 1.8 | MFI [16]: 16 MFI | MFI Ratio hLL1:bkgd [16]: 5.3 | MFI [17]: 220 MFI | MFI Ratio hLL1:bkgd [17]: 36.7

— US20180296689A1
